Measured values taken from patent US20120039906A1.

Molecular target: PD-1 Ig fusion protein (extracellular region of human PD-1, aa 1 to 152, fused to the Fc fragment of human IgG1) (human) (UniProt Q15116)
Experiment: SPR (Biacore), 1:1 Langmuir model, PD-L2 Ig over immobilised PD-1 Ig; bivalent analyte, filing calls it most likely an avidity value

Chain of PD-1 Ig fusion protein (extracellular region of human PD-1, aa 1 to 152, fused to the Fc fragment of human IgG1) (human) (Q15116 other isoform, or with tags, fused parts or gaps limits assumed, form in doubt): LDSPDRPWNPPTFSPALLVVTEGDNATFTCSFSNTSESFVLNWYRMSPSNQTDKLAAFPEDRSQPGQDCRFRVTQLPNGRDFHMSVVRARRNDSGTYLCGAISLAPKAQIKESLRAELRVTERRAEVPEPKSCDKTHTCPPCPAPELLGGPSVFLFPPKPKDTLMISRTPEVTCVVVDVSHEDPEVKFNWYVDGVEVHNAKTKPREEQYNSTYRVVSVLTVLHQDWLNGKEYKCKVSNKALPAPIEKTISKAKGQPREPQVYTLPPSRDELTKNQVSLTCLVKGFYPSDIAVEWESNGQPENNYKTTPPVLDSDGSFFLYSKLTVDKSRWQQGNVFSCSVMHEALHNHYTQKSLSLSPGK

Kd: 9.97 nM
Substance: PD-L2 Ig fusion protein (extracellular portion of human PD-L2 fused to the Fc fragment of human IgG1) (from UniProt Q9BQ51 20-220) (Fc fusion)
